Where two headings read alike, the source gives them in different places.
Columns and labels:
human FAP [1] = target: T1, human FAP (human, UniProt Q12884 1-760); experiment: flow cytometry, NIH/3T3-huFAP clone 19 cells
T1 construct: also called hu FAP
Experimental: (§1) Briefly, suspension cells were harvested, counted, checked for viability and re-suspended at 1 million cells per ml in FACS buffer (PBS with 0.1% BSA). […] The staining was fixed for 20 min at 4° C. in the dark, using 75 μl of 1% PFA in FACS buffer per well.
(§2) Fluorescence was analyzed by FACS using a FACS Fortessa (Software FACS Diva). Binding curves and EC₅₀ values were obtained using GraphPadPrism 7.

human ICOS [2] = target: T2, human ICOS (human, UniProt Q9Y6W8 21-199); experiment: flow cytometry, CHO cells expressing human ICOS
T2 construct: The cell that carries it is named under assay; also called huICOS; CD278
T2 sequence: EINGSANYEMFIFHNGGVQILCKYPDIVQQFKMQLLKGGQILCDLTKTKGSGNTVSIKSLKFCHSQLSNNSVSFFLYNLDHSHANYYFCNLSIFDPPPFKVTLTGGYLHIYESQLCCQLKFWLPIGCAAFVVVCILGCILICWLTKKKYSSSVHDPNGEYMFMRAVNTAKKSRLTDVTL
Experimental: as §1, §2

murine FAP [3] = target: T3, murine FAP (murine, UniProt P97321 26-761, limits assumed); experiment: flow cytometry, cells carrying murine FAP not told
T3 construct: also called mouse FAP

cynomolgus ICOS [4] = target: T4, cynomolgus ICOS (cynomolgus, UniProt Q9Y6W8 21-195 (human entry)); experiment: flow cytometry, activated cynomolgus PBMCs, CD4+ subset
T4 chain: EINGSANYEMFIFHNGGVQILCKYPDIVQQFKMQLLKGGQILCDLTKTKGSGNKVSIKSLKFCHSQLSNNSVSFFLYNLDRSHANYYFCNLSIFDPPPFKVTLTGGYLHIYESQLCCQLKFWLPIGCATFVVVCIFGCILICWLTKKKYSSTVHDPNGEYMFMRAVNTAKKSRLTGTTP
Experimental: as §1
(§3) Briefly, cynomolgus PBMCs were activated for 48 hours using Dynabeads™ Human T-Activator CD3/CD28 (Thermo Fischer #11131D) according to manufacturer instruction and stored in RPMI1640 medium containing 10% FCS and 1% Glutamax (Gibco 35050061) at 37° C., in a humidified incubator until subsequent binding experiment was performed, as described above.

cynomolgus ICOS [5] = target: T4, cynomolgus ICOS; experiment: flow cytometry, activated cynomolgus PBMCs, CD8+ subset
Experimental: as §1, §3

cynomolgus ICOS [6] = target: T4, cynomolgus ICOS; experiment: flow cytometry, activated cynomolgus PBMCs, CD4+ subset
Experimental: as §1, §3

cynomolgus ICOS [7] = target: T4, cynomolgus ICOS; experiment: flow cytometry, activated cynomolgus PBMCs, CD8+ subset
Experimental: as §1, §3

murine ICOS = target: T5, murine ICOS (murine, UniProt Q9WVS0 21-200); experiment: flow cytometry, pre-activated murine splenocytes (figure legend: recombinant CHO cells)
T5 sequence: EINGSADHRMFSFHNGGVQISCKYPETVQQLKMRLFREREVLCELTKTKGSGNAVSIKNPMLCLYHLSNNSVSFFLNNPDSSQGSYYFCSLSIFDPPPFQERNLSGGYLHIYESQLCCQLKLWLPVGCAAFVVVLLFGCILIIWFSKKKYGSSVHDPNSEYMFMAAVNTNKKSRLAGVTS

murine FAP [8] = target: T3, murine FAP; experiment: flow cytometry, % positive cells; cells bearing murine FAP not given
human ICOS [9] = target: T2, human ICOS; experiment: flow cytometry on CHO cells stably expressing human ICOS, AF647-labelled anti-human Fc secondary antibody, MFI
Experimental: as §1, §2

human ICOS [10] = target: T2, human ICOS; experiment: flow cytometry on human PBMCs pre-activated 48 h with PHA-L and IL-2, CD4+ subset, MFI
human FAP [11] = target: T1, human FAP; experiment: flow cytometry, NIH/3T3-huFAP clone 19 cells; remark: listed apart in the source
human ICOS [12] = target: T2, human ICOS; experiment: flow cytometry on human PBMCs pre-activated 48 h with PHA-L and IL-2, CD4+ subset, MFI; remark: listed apart in the source
Experimental: as §1
Briefly, Peripheral blood mononuclear cells (PBMCs) were prepared by Histopaque (Sigma-Aldrich, Cat No. 10771-500ML Histopaque-1077) density centrifugation of enriched lymphocyte preparations of heparinized blood obtained from a Buffy Coat (“Blutspende Zürich”). The blood was diluted 1:2 with sterile DPBS and layered over Histopaque gradient (Sigma, #H8889). After centrifugation (450×g, 30 minutes, room temperature), the plasma above the PBMC-containing interphase was discarded and PBMCs transferred in a new falcon tube subsequently filled with 50 ml of PBS. The mixture was centrifuged (400×g, 10 minutes, room temperature), the supernatant discarded and the PBMC pellet washed twice with sterile PBS (centrifugation steps 350×g, 10 minutes). The resulting PBMC population was counted automatically (Cedex HiRes) and stored in RPMI1640 medium containing 10% FCS and 1% Glutamax (Gibco 35050061). […] After incubation the PBMCs were used for a subsequent binding experiment, as described above.

B1: Molecule 9, bispecific 2+1 anti-ICOS (1167)/anti-FAP (4B9) huIgG1 P329GLALA kih (bispecific antibody)
heavy 1: EVRLLESGGGLVQPGGSLRLSCAASGFTFNTYAVHWVRQAPGKGLEWVSGIGGSGVRTYYADSVKGRLTISRDNSKNTLYLQMNSLRAEDTAIYFCAKDIYVADFTGYAFDIWGQGTMVTVSSASTKGPSVFPLAPSSKSTSGGTAALGCLVKDYFPEPVTVSWNSGALTSGVHTFPAVLQSSGLYSLSSVVTVPSSSLGTQTYICNVNHKPSNTKVDKKVEPKSCDKTHTCPPCPAPEAAGGPSVFLFPPKPKDTLMISRTPEVTCVVVDVSHEDPEVKFNWYVDGVEVHNAKTKPREEQYNSTYRVVSVLTVLHQDWLNGKEYKCKVSNKALGAPIEKTISKAKGQPREPQVCTLPPSRDELTKNQVSLSCAVKGFYPSDIAVEWESNGQPENNYKTTPPVLDSDGSFFLVSKLTVDKSRWQQGNVFSCSVMHEALHNHYTQKSLSLSPGGGGGSGGGGSGGGGSGGGGSEIVLTQSPGTLSLSPGERATLSCRASQSVTSSYLAWYQQKPGQAPRLLINVGSRRATGIPDRFSGSGSGTDFTLTISRLEPEDFAVYYCQQGIMLPPTFGQGTKVEIK
heavy 2: not shown
light: DIQMTQSPSSVSASVGDRVTITCRASQGINNFLAWYQQKPGKAPKLLIYDASSLQSGVPSRFAGSGSGTDFTLTISSLQPEDFATYYCQQYNFYPLTFGGGTMVEIKRTVAAPSVFIFPPSDRKLKSGTASVVCLLNNFYPREAKVQWKVDNALQSGNSQESVTEQDSKDSTYSLSSTLTLSKADYEKHKVYACEVTHQGLSSPVTKSFNRGEC
notes: also called FAP-ICOS (2+1)
Human FAP [1]
  EC50: 5.73 nM
Human ICOS [2]
  EC50: 2.72 nM
Murine FAP [3]
  EC50: 0.505 nM
Cynomolgus ICOS [4]
  EC50: 5.5 nM
Cynomolgus ICOS [5]
  EC50: 10.5 nM
Cynomolgus ICOS [6]
  EC50: 5.5 nM
Cynomolgus ICOS [7]
  EC50: 10.5 nM
Murine ICOS
  EC50: 7.21 nM
Murine FAP [8]
  EC50 (read off the curve): ~0.5 nM
Human ICOS [9]
  EC50 (read off the curve): ~3 nM

B2: Molecule 41, CEA(A5H1EL1D)-ICOS(1167) 1+1 human IgG1 P329GLALA (bispecific antibody)
heavy 1: EIVLTQSPATLSLSPGERATLSCRASSSVTYIHWYQQKPGQAPRSWIYATSNLASGIPARFSGSGSGTDFTLTISSLEPEDFAVYYCQHWSSKPPTFGQGTKLEIKSSASTKGPSVFPLAPSSKSTSGGTAALGCLVKDYFPEPVTVSWNSGALTSGVHTFPAVLQSSGLYSLSSVVTVPSSSLGTQTYICNVNHKPSNTKVDKKVEPKSCDKTHTCPPCPAPEAAGGPSVFLFPPKPKDTLMISRTPEVTCVVVDVSHEDPEVKFNWYVDGVEVHNAKTKPREEQYNSTYRVVSVLTVLHQDWLNGKEYKCKVSNKALGAPIEKTISKAKGQPREPQVCTLPPSRDELTKNQVSLSCAVKGFYPSDIAVEWESNGQPENNYKTTPPVLDSDGSFFLVSKLTVDKSRWQQGNVFSCSVMHEALHNHYTQKSLSLSP
light 1: EVQLLESGGGLVQPGGSLRLSCAASGFTFTDYYMNWVRQAPGKGLEWLGFIGNKANAYTTEYSASVKGRFTISRDKSKNTLYLQMNSLRAEDTATYYCTRDRGLRFYFDYWGQGTTVTVSSASVAAPSVFIFPPSDEQLKSGTASVVCLLNNFYPREAKVQWKVDNALQSGNSQESVTEQDSKDSTYSLSSTLTLSKADYEKHKVYACEVTHQGLSSPVTKSFNRGEC
heavy 2: not shown
light 2: DIQMTQSPSSVSASVGDRVTITCRASQGINNFLAWYQQKPGKAPKLLIYDASSLQSGVPSRFAGSGSGTDFTLTISSLQPEDFATYYCQQYNFYPLTFGGGTMVEIKRTVAAPSVFIFPPSDRKLKSGTASVVCLLNNFYPREAKVQWKVDNALQSGNSQESVTEQDSKDSTYSLSSTLTLSKADYEKHKVYACEVTHQGLSSPVTKSFNRGEC
Human ICOS [10]
  binding result: binds

B3: Molecule 13, bispecific 2+1 anti-ICOS (1167)/anti-FAP (4B9) Crossfab-IgG P329G LALA inverted (bispecific antibody)
heavy 1: EVRLLESGGGLVQPGGSLRLSCAASGFTFNTYAVHWVRQAPGKGLEWVSGIGGSGVRTYYADSVKGRLTISRDNSKNTLYLQMNSLRAEDTAIYFCAKDIYVADFTGYAFDIWGQGTMVTVSSASTKGPSVFPLAPSSKSTSGGTAALGCLVEDYFPEPVTVSWNSGALTSGVHTFPAVLQSSGLYSLSSVVTVPSSSLGTQTYICNVNHKPSNTKVDEKVEPKSCDKTHTCPPCPAPEAAGGPSVFLFPPKPKDTLMISRTPEVTCVVVDVSHEDPEVKFNWYVDGVEVHNAKTKPREEQYNSTYRVVSVLTVLHQDWLNGKEYKCKVSNKALGAPIEKTISKAKGQPREPQVCTLPPSRDELTKNQVSLSCAVKGFYPSDIAVEWESNGQPENNYKTTPPVLDSDGSFFLVSKLTVDKSRWQQGNVFSCSVMHEALHNHYTQKSLSLSP
light 1: DIQMTQSPSSVSASVGDRVTITCRASQGINNFLAWYQQKPGKAPKLLIYDASSLQSGVPSRFAGSGSGTDFTLTISSLQPEDFATYYCQQYNFYPLTFGGGTMVEIKRTVAAPSVFIFPPSDRKLKSGTASVVCLLNNFYPREAKVQWKVDNALQSGNSQESVTEQDSKDSTYSLSSTLTLSKADYEKHKVYACEVTHQGLSSPVTKSFNRGEC
heavy 2: not shown
light 2: EVQLLESGGGLVQPGGSLRLSCAASGFTFSSYAMSWVRQAPGKGLEWVSAIIGSGASTYYADSVKGRFTISRDNSKNTLYLQMNSLRAEDTAVYYCAKGWFGGFNYWGQGTLVTVSSASVAAPSVFIFPPSDEQLKSGTASVVCLLNNFYPREAKVQWKVDNALQSGNSQESVTEQDSKDSTYSLSSTLTLSKADYEKHKVYACEVTHQGLSSPVTKSFNRGEC
Human FAP [11]
  EC50: 4.45 nM
Human ICOS [12]
  binding result: binds
